Measured values: patent US20090148907A1, “NOVEL FRUCTOFURANOSIDASE ACTIVITY FOR OBTAINING THE PREBIOTIC OLIGOSACCHARIDE 6-KESTOSE” (CONSEJO SUPERIOR DE INVESTIGACIONES CIENTIFICAS, priority 2005, published 2009)

Key:
Type in all cases: biochemical
[1] = target: T1, fructofuranosidase of S. occidentalis (pure enzyme F-3) (Schwanniomyces occidentalis, UniProt P24133); assay: Transfructosidase (transglycosylation) activity of pure enzyme F-3 on sucrose, HPLC; conditions: after 144 hours at 50° C, high sucrose concentration
T1 construct: the enzyme object of the invention is extracellularly released; endogenous in cells; host or cells: Schwanniomyces occidentalis culture supernatant; concentrated (F-1), then DEAE-Sephacel at pH 7 (F-2) and at pH 5 (F-3)
T1 sequence (P24133 whole entry, looked up): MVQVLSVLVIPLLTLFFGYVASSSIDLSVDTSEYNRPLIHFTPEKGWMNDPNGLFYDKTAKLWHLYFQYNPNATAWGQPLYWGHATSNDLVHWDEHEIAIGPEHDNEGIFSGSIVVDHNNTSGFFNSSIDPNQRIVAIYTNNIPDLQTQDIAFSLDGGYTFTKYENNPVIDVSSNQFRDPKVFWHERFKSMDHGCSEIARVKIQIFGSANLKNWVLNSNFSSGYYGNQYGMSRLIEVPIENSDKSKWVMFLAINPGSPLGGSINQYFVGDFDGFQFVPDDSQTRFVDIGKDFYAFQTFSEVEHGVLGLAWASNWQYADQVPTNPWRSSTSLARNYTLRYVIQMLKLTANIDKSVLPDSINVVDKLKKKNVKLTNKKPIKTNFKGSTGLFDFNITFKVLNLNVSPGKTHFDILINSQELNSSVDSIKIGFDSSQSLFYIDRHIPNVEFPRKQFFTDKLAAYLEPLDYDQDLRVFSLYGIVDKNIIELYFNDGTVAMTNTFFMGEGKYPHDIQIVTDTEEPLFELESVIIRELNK
Protocol: The transglycosylation activity of the pure enzyme (fraction F-3) was assayed. A reaction was prepared using a high concentration of sucrose (510 g/l) and a final enzymatic activity in the reaction mixture of approximately 0.5 U/ml. […] It is seen that the profile of the obtained products is very similar in both cases, specifically the 6-kestose/1-kestose ratio that was obtained was 3.3.
After 144 hours of reaction, 42.6 g/l of FOS were obtained. The total percentage (w/w) of fructooligosaccharides was 8.4% this value being with respect to the total weight of carbohydrates in the medium.
A high concentration solution of sucrose ([…]) in 0.2 M sodium acetate buffer pH 5.6 was prepared. The fructofuranosidase was added until a final concentration in the reaction mixture of 0.5 U/ml (one unit U is the enzymatic activity corresponding to releasing a micromole of reducing sugars per minute, using 100 g/l of sucrose as substrate, in 0.2 M sodium acetate buffer pH 5.6, at 50° C.). The reaction mixture was incubated for 144 hours at 50° C., with orbital stirring at 700 rpm. Aliquots were extracted at different times, incubated for 5 minutes at 80° C. to inactivate the enzyme, diluted 1:2 (v/v) with water centrifuged for 5 minutes at 6000 rpm in an eppendorf tube with a 0.45 μm filter and analyzed by HPLC liquid chromatography. The profile of the products formed is seen in FIG. 7. Two trisaccharides were obtained: a majority trisaccharide, identified as 6-kestose, and another minority trisaccharide, identified as 1-kestose. At the final reaction time (144 h), the composition of the system was: 12.7% fructose, 14.80/glucose. 64.1% sucrose, 2.4% 1-kestose and 5.9% 6-kestose).

[2] = Fructofuranosidase activity of fractions during purification; conditions: eluted at 0.2 M of salt, DEAE-Sephacel pH 5
Protocol: The cell free fraction was obtained by centrifugation (F-0) of a culture of S. occidentalis ATCC26077 grown at 29° C. and 235 rpm. Fructofuranosidase activity was assayed in the latter, determining the glucose release on different substrates. A colorimetric assay and the standard methodology were used. The released glucose was quantified using the glucose oxidase-peroxidase coupled reaction: 0.4 ml of the solution to be determined was mixed with 0.1 ml of A:B (20:1) solution (A: 0.85 U/ml glucose oxidase, 0.40 U/ml peroxidase in sodium phosphate buffer pH 5; B: 0.6% O-dianisidine). It was incubated for 30 minutes at 37° C. and spectrophotometrically quantified at 450 nm. A standard glucose curve (0 to 100 μg/ml) was used. The fructofuranosidase activity unit is defined in μmol/ml min of glucose determined in the described conditions.
For the purification of the enzyme, 2 liters of extracellular fraction of S. occidentalis, with a fructofuranosidase activity of 0.58 U/ml, were used to begin. The following method was used:
1) Concentration of the extracellular fraction using a tangential filtration system (30 kDa fitter) followed by dialysis against 20 mM HCl-Tris pH 7 (buffer A) for 2 hours at a temperature of 4° C. […]
3) Ion exchange chromatography to pH 5. […] The fructofuranosidase activity determined as previously indicated eluted at 0.2 M of salt and was 0.33 U (F-3).

[3] = Fructofuranosidase activity at different pH and temperatures; conditions: solution of pure protein, on sucrose
Protocol: The fructofuranosidase activity was assayed at different pH and temperatures. Maximum activity levels were obtained in a pH range comprised, between 5 and 6 units at 50° C. and at a temperature of 40 and 55° C.
FIG. 3 indicates the enzymatic activity in function of the pH and of the temperature, showing the corresponding maximums. The assays were performed on sucrose using a solution of pure protein. 100% corresponds to an activity of 5.59 U/ml. FIG. 3A: fructofuranosidase activity was determined at different pHs (3-9 pH units), an assay temperature of 50° C. and sodium citrate, sodium phosphate and HCl-Tris buffer (all of them 100 mM) for the pH range of 3-4.5, 5.0-7.5 and 8.0-9.0, respectively. FIG. 3B: the temperature assay (30-70° C.) was performed in 50 mM sodium phosphate pH 5.5.

B1: F-3: purified fructofuranosidase of S. occidentalis with transfructosidase activity, SEQ. ID. NO: 1, 535 amino acids (protein, listed as Debaryomyces occidentalis)
chain: MVQVLSVLVIPLLTLFFGYVASSSIDLSVDTSEYNRPLIHFTPEKGWMNDPNGLFYDKTAKLWHLYFQYNPNATAWGQPLYWGHATSNDLVHWDEHEIAIGPEHDNEGIFSGSIVVDHNNTSGFFNSSIDPNQRIVAIYTNNIPDLQTQDIAFSLDGGYTFTKYENNPVIDVSSNQFRDPKVFWHEDSNQWIMVVLKSQEYKIQIFGSANLKNWVLNSNFSSGYYGNQYECPGLIEVPIENSDKSKWVMFLAINPGSPLGGSINQYFVGDFDGFQFVPDDSQTRFVDIGKDFYAFQTFSEVEHGVLGLAWASNWQYADQVPTNPWRSSTSLARNYTLRYVHTNAETKQLTLIQNPVLPDSINVVDKLKKKNVKLTNKKPIKTNFKGSTGLFDFNITFKVLNLNVSPGKTHFDILINSQELNSSVDSIKIGFDSSQSSFYIDRHIPNVEFPRKQFFTDKLAAYLEPLDYDQDLRVFSLYGIVDKNIIELYFNDGTVAMTNTFFMGEGKYPHDIQIVTDTEEPLFELESVIIRELNK
With B1 the “Transfructosidase activity retained (in words)” value [1] was “still maintains transfructosidase activity”, the Fructofuranosidase activity [2] was 0.33 U and the “Activity corresponding to 100% in FIG. 3” value [3] was 5.59 U/ml.
